The values that follow come from patent US20030162275A1, “Dog flavin-containing monooxygenase” (priority 2002, published 2003).

The chains are these.
B1: SEQ ID NO: 2: Amino acid sequence of a variant of dog wild-type FMO1 (protein, listed as Canis familiaris)
chain: MAKRVAIVGAGVSGLASIKCCLEEGLEPTCFERSDDLGGLWRFTEHVEGGRASLYKSVVSNSCKEMSCYSDFPFPEDYPNYVPNSQFLEYLKMYANRFSLLKCIRFKTKVCKVTKCPDFTVTGQWEVVTQHEGKQESAIFDAVMVCTGFLTNPHLPLDCFPGINTFKGQYFHSRQYKHPDIFKDKRVLVIGMGNSGTDIAVETSRLAKKVFLSTTGGAWVMSRVFDSGYPWDVVFMTRYQNMFRNSLSTPIVTWLMARKMNSWFNHANYGLVPEDRTQLREPVLNDELPGCIITGKVLIKPSIKEVKENSVVFNNTPKEEPIDIIVFATGYTFAFPFLDETVVKVENGQASLYKYIFPVHLPKPTLAVIGLIKPLGSMIPTGETQARWAVRVLKGINKLPPQSAMTEEVNARKENKPSGFGLCYCKALQSDYITYIDELLTNINAKPNLFSLPLTDPRLALTTFFGPCTPYQFRLTGPGKWKGARNAILTQWDRTFKVTKTRIVQESPTPFASLLKLLSLLALLMAIFQIFL
B2: SEQ ID NO: 6: Amino acid sequence of dog wild-type FMO1, expressed using a baculovirus expression system in insect cells (protein, listed as Canis familiaris)
chain: B1 chain with G49E, V233M, Y239F, S248P, P453L, T463I, Q529L
B3: SEQ ID NO: 4: Amino acid sequence of another variant of dog wild-type FMO1 (protein, listed as Canis familiaris)
chain: B1 chain with G49E, C159Y, F182L, V233M, Y239F, S248P, L422S, P453L, T463I

Numbering of substitutions follows the chain as printed.

A short description of this series: Enzyme activity assay (MPT S-oxidase activity of expressed FMO1 polypeptides in Sf-9 cell microsomes). The following applies: 25 ug Sf-9 cell microsomal protein, 1 mM NADPH, 0.1 M tricine, 37° C., 10 minutes, HPLC detection of MPT sulfoxide at 240 nm. The class given is biochemical, dog. How it is done:
Examples of particular variants of polypeptides of the invention include polypeptide of SEQ ID NO: 2 and SEQ ID NO: 4. […] This enzyme assay represents a single known method for the detemination of enzyme activity of various FMOs. Briefly, the methyl-p-tolyl (MPT) S-oxidase activity of the expressed variants of the polypeptide was assayed as a measure of FMO function. […] Incubations included 25 ug of Sf-9 cell (containing the polypeptide) microsomal protein 1 mM NADPH, and 0.1 M tricine. Incubations were started by the addition of MPTS and were conducted at 37° C. for at least 10 minutes. Following termination of the incubation, the supernatant was analyzed by high performance liquid chromatography and the MPT sulfoxide product was detected by absorbance at 240 nm and quantitated using an authentic standard of the sulfoxide metabolite.
An achiral assay method was conducted according to the data sheets provided by Gentest, with some modifications. Based on preliminary determinations of the linearity of metabolite formation with protein concentration and incubation time, incubation conditions were established using 50 μg (tissue microsomes) or 25 μg (Sf-9 cell microsomes) protein, 1 mM NADPH, and 0.1 M tricine in a total volume of 0.25 ml. Samples were incubated for 3 min at 37° C. followed by the addition of substrate (in 1% methanol) to start the reaction. Incubations were terminated after 10 minutes by the addition of 50 μl of acetonitrile, and samples were centrifuged to precipitate protein. The supernatant was analyzed by HPLC, using a 4.6 ×250 mm 5 micron C18 analytical column (Luna™C18(2), Phenomenex, Torrance Calif.) and a 1 ml/min gradient elution of 40:60/methanol:water to 60:40/methanol/water over 8 minutes, followed by substrate elution with 95% methanol. The MPT sulfoxide product was detected by absorbance at 240 nm and quantitated using the authentic standard. Imipramine N-oxidation was measured by substrate-dependent oxidation of NADPH at 340 nm Wyatt et al., 1998, using 25-50 μg of microsomal protein in a total volume of 750 μl.
As for B1, the “enzyme activity (MPT S-oxidase activity as a measure of FMO function)” value is “inactive”. The entry for B2 is “active”. The entry for B3 is “inactive”.
